Test results taken from IntAct's records for PubMed 24947010.

B1: Parkinson disease protein 7 (Homo sapiens), Q99497 (parent)
chain: MASKRALVILAKGAEEMETVIPVDVMRRAGIKVTVAGLAGKDPVQCSRDVVICPDASLEDAKKEGPYDVVVLPGGNLGAQNLSESAAVKEILKEQENRKGLIAAICAGPTALLAHEIGFGSKVTTHPLAKDKMMNGGHYTYSENRVEKDGLILTSRGPGTSFEFALAIVEALNGKEVAAQVKAPLVLKD

Variants of: B1
Conditions: with rack1_human RACK1, P63244
For MASKRALVILAKGAEEMETVIPVDVMRRAGIKVTVAGLAGKDPVQCSRDVVISPDASLEDAKKEGPYDVVVLPGGNLGAQNLSESAAVKEILKEQENRKGLIAAICAGPTALLAHEIGFGSKVTTHPLAKDKMMNGGHYTYSENRVEKDGLILTSRGPGTSFEFALAIVEALNGKEVAAQVKAPLVLKD [C53S], the “effect of a mutation on the interaction” value was “decreasing interaction strength”.
MASKRALVILAKGAEEMETVIPVDVMRRAGIKVTVAGLAGKDPVQCSRDVVICPDASLEDAKKEGPYDVVVLPGGNLGAQNLSESAAVKEILKEQENRKGLIAAISAGPTALLAHEIGFGSKVTTHPLAKDKMMNGGHYTYSENRVEKDGLILTSRGPGTSFEFALAIVEALNGKEVAAQVKAPLVLKD [C106S] was tested, and the “effect of a mutation on the interaction” value was “disrupting interaction strength”.
In the case of MASKRALVILAKGAEEMETVIPVDVMRRAGIKVTVAGLAGKDPVQSSRDVVICPDASLEDAKKEGPYDVVVLPGGNLGAQNLSESAAVKEILKEQENRKGLIAAICAGPTALLAHEIGFGSKVTTHPLAKDKMMNGGHYTYSENRVEKDGLILTSRGPGTSFEFALAIVEALNGKEVAAQVKAPLVLKD [C46S], the “effect of a mutation on the interaction” value is reported as “disrupting interaction strength”.
